Laboratory results taken from patent US20090104205A1 (AstraZeneca / MedImmune, published 2009).

B1: murine monoclonal antibody MAb 1129 (antibody, V domains shown)
VH: QVELQESGPGILQPSQTLSLTCSFSGFSLSTSGMSVGWIRQPSGEGLEWLADIWWDDKKDYNPSLKSRKTISKDTSSNQVFLKITGVDTADTATYYCARSMITNWYFDVWGAGTTVTVSS
VL: DIQLTQSPAIMSASPGEKVTMTCSASSSVGYMHWYQQKSSTSPKLWIYDTSKLASGVPGRFSGSGSGNSYSLTISSIQAEDVATYYCFQGSGYPFTFGGGTKLEIK
notes: also called M1129
B2: murine monoclonal antibody MAb 1308F (antibody, V domains shown)
VH: EVQKQQSGAELVRPGALVKLSCKASGFNIKDYYIYWVKQRPEQGLEWIGWIDPENGNTVFDPLFQGKASITSDTSSNTAYLQLSSLTSEDTAVYYCAYYGTSSFDFWGQGTTLTVSS
VL: DIKMTQSPSSMYVSLGERVTITCKASQDINRYLNWFQQKPGKSPKTLIHRANRLVDGVPSRFSGSGSGQEYSLTISSLEFEDMGIYYCLQFHEFPYTFGGGTKLEIL
notes: also called M1308F; Mu1308F
B3: humanized 1308F (CDR-grafted anti-RSV F antibody, human IgG1/kappa) (antibody, V domains shown)
VH: QVQLVQSGAEVKKPGASVKVSCKASGFNIKDYYIYWVRQAPGQGLEWIGWIDPENGNTVFDPKFNGRVTMTRDTSTSTVYMELSSLRSEDTAVYYCAYYGTSSFDFWGQGTTLTVSS
VL: DIQMTQSPSTLSASVGDRVTITCKASQDINRYLNWYQQKPGKAPKLLIYRANRLVDGVPSRFSGSGSGTEFTLTISSLQPDDFATYYCLQFHEFPYTFGGGTKLEIL
notes: also called H1308F; Hu1308F
B4: humanized 1129 (CDR-grafted anti-RSV F antibody, human IgG1/kappa) (antibody, V domains shown)
VH: QVTLRESGPALVKPTQTLTLTCTFSGFSLSTSGMSVGWIRQPPGKALEWLADIWWDDKKDYNPSLKSRLTISKDTSKNQVVLKVTNMDPADTATYYCARSMITNWYFDVWGAGTTVTVSS
VL: DIQMTQSPSTLSASVGDRVTITCKCQLSVGYMHWYQQKPGKAPKLWIYDTSKLASGVPSRFSGSGSGTEFTLTISSLQPDDFATYYCFQGSGYPFTFGGGTKLEIK
notes: also called H1129; Hu1129

molecular target: T1, C-terminal truncated RSV F protein (secreted, from recombinant baculovirus) (respiratory syncytial virus, UniProt P03420 26-524); experiment: SPR (BIAcore), F protein amine-coupled, Kd = kd/ka
T1 construct: also called immobilized F protein
T1 sequence (P03420 26-524): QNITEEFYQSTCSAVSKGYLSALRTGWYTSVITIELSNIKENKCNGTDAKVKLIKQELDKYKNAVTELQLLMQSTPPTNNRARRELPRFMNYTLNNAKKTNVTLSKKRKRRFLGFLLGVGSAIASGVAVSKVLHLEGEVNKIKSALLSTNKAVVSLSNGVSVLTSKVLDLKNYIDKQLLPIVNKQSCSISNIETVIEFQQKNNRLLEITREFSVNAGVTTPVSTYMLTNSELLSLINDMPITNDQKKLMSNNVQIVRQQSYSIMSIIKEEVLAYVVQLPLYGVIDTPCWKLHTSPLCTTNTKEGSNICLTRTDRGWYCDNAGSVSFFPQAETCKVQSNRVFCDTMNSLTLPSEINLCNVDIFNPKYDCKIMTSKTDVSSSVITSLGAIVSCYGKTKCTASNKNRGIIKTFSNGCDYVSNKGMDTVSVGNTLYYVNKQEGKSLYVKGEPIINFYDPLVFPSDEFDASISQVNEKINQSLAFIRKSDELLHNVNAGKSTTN

Compared with B1, B2 is 10-fold lower in Kd: 11.4 nM for the first, 1.1 nM for the second. The second binds more tightly here.

Going from B3 to B4, the Kd falls from 2.5 nM to 1.4 nM (1.8-fold).

molecular target: T1, C-terminal truncated RSV F protein …; experiment: SPR (BIAcore), F protein amine-coupled, Mab injected at 25-300 nM

Going from B1 to B2, the koff falls from 0.0004 s⁻¹ to 3.8e-05 s⁻¹ (11-fold).

B3 and B4 are within 1.5-fold of each other in koff: 5.5e-05 s⁻¹ for the first, 6.9e-05 s⁻¹ for the second.

B1 and B2 are the same in kon: 35000 M⁻¹ s⁻¹ for the first, 35000 M⁻¹ s⁻¹ for the second.

First: B3
Second: B4
The kon of the first is 2.2-fold lower: 22000 M⁻¹ s⁻¹ for the first, 49000 M⁻¹ s⁻¹ for the second.

Compared with B1, B2 is 11-fold higher in “t1/2 (dissociation half-life)” value: 0.48 h for the first, 5.1 h for the second.

B3 and B4 are within 1.5-fold of each other in “t1/2 (dissociation half-life)” value: 3.5 h for the first, 2.8 h for the second.

molecular target: T2, RSV F protein (native, from RSV virus or RSV infected HEP2 cell lysate) (respiratory syncytial virus, UniProt P03420 26-574); experiment: capture ELISA: RSV infected HEP2 cell lysate captured on Mu1331 antibody; double reciprocal plot of OD vs antibody concentration
T2 construct: In the ELISA the antigen was whatever the Mu1331 anti-F antibody captured from the infected cell lysate; also called RSV F antigen; RSV F glycoprotein
T2 sequence (P03420 26-574): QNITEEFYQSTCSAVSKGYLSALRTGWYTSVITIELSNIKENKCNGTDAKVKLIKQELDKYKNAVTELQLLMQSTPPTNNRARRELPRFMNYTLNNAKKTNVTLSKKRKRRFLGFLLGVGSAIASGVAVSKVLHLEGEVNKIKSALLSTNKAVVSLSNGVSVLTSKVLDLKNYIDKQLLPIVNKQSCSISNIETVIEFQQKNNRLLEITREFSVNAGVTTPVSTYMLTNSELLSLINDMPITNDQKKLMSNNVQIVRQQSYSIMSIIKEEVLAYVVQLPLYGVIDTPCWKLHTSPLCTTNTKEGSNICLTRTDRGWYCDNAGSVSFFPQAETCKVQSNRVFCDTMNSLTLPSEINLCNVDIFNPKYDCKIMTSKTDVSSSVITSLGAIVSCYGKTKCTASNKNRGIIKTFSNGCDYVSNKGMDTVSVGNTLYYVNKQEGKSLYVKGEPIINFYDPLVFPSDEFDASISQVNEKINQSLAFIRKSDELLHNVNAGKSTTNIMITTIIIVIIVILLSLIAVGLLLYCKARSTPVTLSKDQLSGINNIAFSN

B4 showed a Kd of 0.7 nM.
